The source of these data is a protein production outcome set (Wang et al. 2014).

A short description of this data set: label from the status in PepcDB records.
For the sequence “METTDHSTPQCGSASAGGQKTVGKDDYLLIEAVNKGDADRVQQLLEQGADANVCEESGGWTPLHNAVQSGRVDIVNLLLRYGADPHRRKKNGATPFIVAGICGDVSLLQIFLSRGANINERDMYGFTAFMEAAEYGNVEALKFLFAEGADVNLRRETTEDRRRLKQGGATALMSAAENGHPEVVRILLDEMKAEADARDNMGRNALIRSLLNRDCENVEIHVEEITSVLIQYGADINVRGEGEKTPLISAVKRKHTGLVQMLLSQEGIKVNDRDSEGKTALQIAVELKLKEIVRLLLEKGADTKCGDLVWIAKRNYDHGLVKLLLSYEANHDTNPPAKDWLPHSARWGEALERLHSVSRPMTGKLKIFMNDDYKIASTSEGGIYLGIYDNREVAVKVFCENSSRGRKEVSCLRDCGDHSNLLTFYGSEEHKGSLYVCVSLCESTLEKFLNVPREEPMEKGEDKFALSVLLSIFKGVQKLHMHGYSHQNLQPPNILIDSEKAVRLADFDESIQWMRESQTVQRDLEDLGRLVLYVVNKGEIPFETLKGQNDEELLTIAPNEETKDLVHCLFSPGENVKNCLMDLLGHPFFWTWENRYRTLRDVGNESDIKVRNNKSKLLKLLQPQTHAPSRSFDRWTSKIDKRVMSDMNGFYKSRKGYRDTVGDLLKFIRNIGEHINEEKNRQMKEILGDPSRYFQETFPDLVIYIYKKLKETEFRKHFPQPPPSLSVPEAAGPGGVQS”, the protein production result is given as “failed”.
To “METVFALCAIMLLAFNLLGIVLAGWRLTRRDAENDLVRQKPPVSLVVPLRGVENFTPLTLSRAFGLDWPDYELLFCVADEFDPVIAEVRKAAAAFPSVSMQLLIGDDRVSANPKLNNCVKGWRAAKYEWVILADSNVLMPKSYIATMMSAWRPDSGLVCSPPLGSRPVGFWANVECAFLNGSQGRWQYAAEAIGIGFAQGKSMLWNKPFLEDRGGIRALAAEIAEDAASTKLVRSAGRKVHLVSAPFEQPLGQRHAGEIWSRQTRWARLRRVTFPQYFAPEILTGALPPLLFALAATAMMDVNLAATASVVLALMFGPELALAALNGWPVSLYTLPAMIARDLIMPVVWARSWIGSAVAWRGNVMTIGTAESTLAGPPAE” belongs “failed”; to “MEVCSTVTTKKLSSLAKLILFTIQKVSDASRHKLLTTLDPHLLAKRGKILRKSLNEAVSTSHSRITCRPSDHQDVRSSFISPVPLQLEYEFSCSSTPPRRSYATTVSKGRRSNGSHNRPLINKRQRQAYIRYNTLPKVRDSIWDRHVAAAVFPDVASSTGTMESCHVDRAAEEFIQSFYRQLRLQKWMMAQEV”, “failed”; to “MEVDKKDEREAESSEQVVNPWEVSAKDGGKIDYDKLIDKFGCQRLDESLIDRVQRLTSRQPHVFLRRSVFFAHRDFNEILDAYERGDKFYLYTGRGPSSEALHLGHLIPFMFTKYLQEAFKVPLVIQLTDDEKSIWKNLSVEESQRLARENAKDIIACGFDVTKTFIFSDFDYVGGAFYKNMVKVGKCVTLNKAMGIFGFSGEDPIAKLSFPPVQAVPSFPSSFPHLFPGKDNLRCLIPCAIDQDPYFRMTRDVAPRLGYSKPALIESTFFPALQGENGKMSASDPNSAIYVTDSAKDIKNKINRYAFSGGQDSIEKHRELGANLEVDIPVKYLSFFLEDDSELEHIKKEYGEGRMLTGEVKKRLTEVLTEIVERHRRARAAVTDEMVDAFMAVRPLPSMFE”, “not failed”.
In the case of “MEVISSFYLFLEILGTVAFAISGTVVGINHKLDIFGILVMSVITAVGGGIFRDLLLGATPPTALKSPFFIVISIIASIVAMLVALIIKSRREALSIFKAARFYNNLLLVSDAIGLGIFTVLGIDAGIAHGYSQNIFFIVFLGVLTGVGGGMIRDVIANQVPMIFRENIYALPCIIGGILYVYLQSVISHNLALFISVIFIVLIRIISEQRKLNLPRIEY” it was “failed”.
For the sequence “MEVKMNEIMEALEQSELIIIHRHLRPDPDAYGSQLGLKYYLQKKFPNKQIYAVGANEDSLKFIGLMDEIDDDMYKKATVVVCDTANAPRIDDQRYDTGTKLLKIDHHPATDQYGDINYVNTKASSTSEIIYEFILHFNDEHIIDEQVARVLYLGIVGDTGRFLFNNTTPRTMQIAGKLLTYPFDHNQELNKMSEKDPKLLPFQGYILQNFDLNDKGFCKVKITKDILEKFQIQPNEASLFVNTIADIRGLKIWMFGVDEGDQIRCRLRSKGHIIINDVANTFGGGGHPNASGVSVNSWEQFEQLAEALNDKL”, the protein production result is “failed”.
Turning to “MEVSEGIEIIRGDPRRALIKLSGPLIVAMLLTSIYNLVDAVWVAGLGGEALAAIGFVTPIYMILVGLSNGLGAGAASSVSRCLGAGDEEGMNNSASHTIIITLAVSIILTVIIEILLRDILLSLGAAGALKPAMEYGSVVFAGTLFTLFPGAAYGILRSEGDARRPMYAMGLSAVLNMVLDPILIYTAGWGIAGAAWATVISQLLVSLLIIYWFLAGRTFTSIGWSHFRADRGVVWSILSVTIPASAEFLVMSMVTALLNWILTSVAGTSAVAVYSAGWRIVMLAIVPVISVATALVSVSGVAYGSRNFENLEVAHGYSIRLGLLIAGATAALTFVLAPWIAWIFSYSQASSHLAPRITGFLRVICLFYIFLPPGIMSGSIFQGAGRGMTSLMLSVIRQVLLVAVFAYLLAVTLGLGEVGVWWGVVAGDIGGSLVAYLWARLFIGRLRRYAA”, the protein production result is “failed”.
In the case of “MEVYSMNFALGVILAFSAAFTWALTSVLSKVSMRRVSPLTLNFLRLVIASGFYLPLIIYLNLIPSKGIMWWVIVVFSGIIGFMIGDWLFLEGMKLLGVSRANMLTTLHPIITMVLAHYLLGRPLNAYLFLGAGLIILAVLLLLSEKSESGGINARGVLLVVVAELLWTIAILITDWLVSNEPPVLIAALRISSGILGGLPFLPKMWREIRKLRLGDMGLVFVISLLGTIVGQYLFIKSISLVSSTVATPVTESTPIMASLLAVVFLREKITSKLVASMMLSFIGILIIGVLG”, the protein production entry is “failed”.
To “MEWEVKEDGYSEEVSSLFLDHLPSKILEAKNRAEQLLTLQEKPILDIAEYNHAKVLAAFQEERVSTYHLQGTTGYGLGDSGRETLDRVMARILGTEAALVRGQFVSGTHAIATALFGVLRPGDHFISVTGDPYDTLEEVIGIRGTGQGSLKDFGVSYDSVPLSEEGTIQHSLVSQGIKPNTKMLILQRSRGYAWRNSLPMEQIAAFVAYVREHFPHLIIFVDNCYGELVEKCEPGDVGADLMAGSLIKNLGGSLAPTGGYIAGRQELVEKAACRLTAPGIGGEVGATLSWQLQFFQGLFFSPLTVSEAIRGAIFSAAFWQALGFEVNPLPDALRTDLIQAVKLNSREAMIAFCQGFQKGSPVDSHVLPIPSGMPGYEDEVIMAGGTFIQGATSEFSADGPMRDPFIAYQQGGVSMNYIKFGNLLAAQKLWEQGLLK” belongs “failed”; to “MEYDEKLARFRQAHLNPFNKQSGPRQHEQGPGEEVPDVTPEEALPELPPGEPEFRCPERVMDLGLSEDHFSRPVGLFLASDVQQLRQAIEECKQVILELPEQSEKQKDAVVRLIHLRLKLQELKDPNEDEPNIRVLLEHRFYKEKSKSVKQTCDKCNTIIWGLIQTWYTCTGGPRPRRGVRNERDQSSCLRWAHIQM”, “failed”; to “MEYGHHARPDSKRPLDEGSPAAAGLTSKKANEALTRNRELTTVLVKNLPKSYNQNKVYKYFKHCGPIIHVDVADSLKKNFRFARIEFARYDGALAAITKTHKVVGQNEIIVSHLTECTLWMTNFPPSYTQRNIRDLLQDINVVALSIRLPSLRFNTSRRFAYIDVTSKEDARYCVEKLNGLKIEGYTLVTKVSNPLEKSKRTDSATLEGREIMIRNLSTELLDENLLRESFEGFGSIEK”, “not failed”.
In the case of “MEYIKPHKGFSTLIILGITLGIDLIFSLLSTFINTYIVLRILEIFIVFFNIYQLYYILKSLTLKYCYDNENFYVLWCFGIRRVTIPFKEIEAYNVSHGEIKGVKLWGYGRNFFALGTFSVNDIGIVNMFVTATKNVIYIKCNSSIYGISPEKCDEVKNFLEKRKLVLKNWTYEKRNKVSLSKDRHFDILIFLISIVILMVTIIPFILYLRGVMPHKMPLSFDSNFKPMIYGTSREFAFKHMMYGAYNMIIFFCIYYSAYFYARYSKKLAYRLMYISFLVAFIFLIFQFKIYVTYIH”, the protein production result is “failed”.
Consider “MEYILYISRFLYRIRWWLLIGTAIITFAVYYFGKRMIGKTYNVEATLYTGAASGYNLEGGNNKVDWATTQNAMDNLMNIIKAESTLKRVSIRLYARSLIKGNPKEDNEFIKASNYNRIYEHLKNSPNGKEILSLIDKNSEDKTVANFFNYLRPTQANYLYGVFYYNLPYYSYNDLRAIRVARKGASDLIEISYTASDPGIAYNTIDILTKEFVNEYSAIRYGETDKVIEYFKSELQRIGKELRLKEDSLTQYNVEKRVINYYDETKEIAAINKEFELREQNVLIAYNSAKAMLNELEKQMGSNAKHVINNLQFLDKLNEAASLTGKISEMETISSDHQNQEASLQEYKNRLNQTRKELSELSNKYVENKYTKEGIAKENIIEQWLEVTMQYEKAKSDLQIIQQSRIDLNEKYRQFAPVGSTIKRQERNITFIEQNYLSVLKSYNDALMRRKNLEMTSAALKVLNAPAYPISAMPTPLKKMVMAACAGTFLFILGFFLILELLDRTLRDSIRTRRLIGLPMLGAFPKDSILEYHNHVEESKSIATKQLSNSILRFCQQKKEGLPYIINFISTEGGEGKSYVIEALKKYWNSIGLKTKVITWKSDFRIDSREYNLAKSITDLYTSEEEDILIVEYPNLREASISLELLQEANLNILVARADRGWKETDKLLSEKLSQQVGKTPLYVYLTHASRNVVEDYTGMLPPYTLWRKIVYRLSQLALTESIFTFTKRKKQPATSGDEDDE”, for which the protein production entry is recorded as “failed”.
Consider “MEYSRDSAEMMMETKRNVYSLEDNKIKRHKSSDLSFSSKERKDKLAERISALQQLVSPYGKTDTASVLLEGMQYIQFLQEQVKVLSAPYLQATPSTTEEEVEEYSLRSKGLCLVPLEYTSEVAQTNGADIWAPVKTPTSSHAFNLSSSNSPFQ”, for which the protein production entry was “failed”.
In the case of “MEYTPFSLILDVGWISGLMIIGNIMRRKIPFFQTLLIPSSITAGIIGMILGPKVLGLIGWSDHLSTYTTVLIAIVFASMPYSMKFDRGVRTGMKTMWAYSTAMFVGQWGLFILLGLFLFQPVWGTDEWFGMMLPVGFVGGFGTAAAVGTALESSGAEAAMSLGFTSATVGTFAAIVGGIIFTTWGIKKGKTAAMPAQLPWDLRSGYIDKLSDRPSIGKASTNPSAIEPLALHTGIILLTVAVAYSINQWLGSMFPTVQIPLFAMSFVVGIVGMGIMRLLKKPEYLDRDTVNSVSGAATDYLIAFGIASIAPAAIADYWVPLVVLFVLGTIYCCFFFFWVAPRFFGEKWLERAIFGWGWATAAVATGIALLKIVDPKLKSGALNEYGVAYIGFAPFEIGMTIIAPIAVLAGFTMGLGWASLIVAIVIFGLAWGLKWLPERGHVRGEGKPQ” it was “failed”; in that of “MFADISAQHWAFAIYVIGAIAICLTMIGLAALLGGRAQGRTKNKPFESGVDSVGTARLRFSAKFYLVAMFFVIFDVEALYLFAWSVSVRESGWVGFIEATIFIGLLLIGLVYLWRIGALEWSPRKPQLNNKNTD”, “failed”; in that of “MFAERRMNVQKKLKIMAARDRNRFRPLFEGDEEVDMLYLNCNVASRPSLSCDGLVCIPIPGWINVLNPSTGEFLRFSSGRDPRLINDFECVDSKFDVFPGFWTMGFGRDNVNGSYKIVRMLFDRHFENRYCQILDVNIGEWRKQRQPPYFVGYREKSACVNGSIYWSQALIRCKLLAFDLYSEEFRDVPTPPRSEICERSCQIVNLEDRLVLAVTYTTSLHWNVKIWSMDAHDGTRSITYSIRLFSKDMNSSIMNHFQLWFWTRPLAVSKRGNLFFHDNEKRL”, “failed”.
To “MFAHIGEDYVVNSSELLLIMSYDIFMSSEDNLRILESLKNEDRLVVINDDLKKSIIILEIDGRLYAIVSPVSSTTIAKRFLNFNYYVDNYLDESLEHHHHHH” belongs “not failed”; to “MFARFLAQLDFVLTCDRLKTALRTTRLHDGSRLENSAEHSWHLALLALTLAEYAPTGTDVGRVVRLLLMHDLVEIGAGDLSFDAPAEAQAAQQEAEARAAAELFGLLPTDQAAEFLGLWQEFEARQTTEVRFARALDALQPMLLTWGPGAQGCAASHPELTHLRVLGLKEKHLREFPELWAAAQGVMAQAQARGVLQPLEHHHHHH”, “failed”.
